Experiment [1] addresses DENV2 E DI/II protein (E domains I and II, E residues 1-291) (dengue virus 2 (New Guinea C strain)).
The target in experiment [2] is DENV2 E DI/II H244A (dengue virus 2 (New Guinea C strain)).

This passage reports liposome co-floatation of DI/II and liposome co-floatation of H244A DI/II results from article PMC2958806.

For the substance “DENV2 NGC DIII (LDIIIH1CS, E residues 289-430) (domain or fragment)”, in experiment [1], the liposome co-floatation of DI/II at low pH in the presence of DIII (no co-floatation when BSA was substituted for DIII) turned out to be 25%.

For “DENV2 pr peptide (recombinant, prM residues 1-86 with tandem Strep tag) (domain or fragment)”, the liposome co-floatation of H244A DI/II at pH 5.75 with DIII, efficiency of floatation in the presence of pr (43% in the absence of pr) in experiment [2] was found to be 47%.
